Test results reported in article PMC3285607, “A P-loop Mutation in Gα Subunits Prevents Transition to the Active State: Implications for G-protein Signaling in Fungal Pathogenesis” (PLoS Pathogens, 2012).

Target: T1, GαoA, wild type, full-length, hexahistidine-tagged (UniProt P09471 1-354)
T1 construct: also called wild type GαoA
Test: SPR; Biacore 3000; GST-RGS12 RGS domain captured on anti-GST antibody on a CM5 chip; Gαo injected in the GDP·AlF4- state; equilibrium binding isotherm
Settings: both partners purified

T1 sequence (P09471 whole entry): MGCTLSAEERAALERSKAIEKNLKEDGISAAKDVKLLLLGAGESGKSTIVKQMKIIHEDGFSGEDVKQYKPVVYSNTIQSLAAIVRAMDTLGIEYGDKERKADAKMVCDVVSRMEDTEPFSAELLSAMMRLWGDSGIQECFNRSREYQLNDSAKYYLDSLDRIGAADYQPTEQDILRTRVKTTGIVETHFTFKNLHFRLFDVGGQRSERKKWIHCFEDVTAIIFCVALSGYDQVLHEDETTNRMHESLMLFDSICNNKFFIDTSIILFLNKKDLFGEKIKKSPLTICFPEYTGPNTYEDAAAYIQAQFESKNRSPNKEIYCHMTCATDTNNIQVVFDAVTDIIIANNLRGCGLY

B1: GST fusion of the RGS12 RGS domain (aa 664–885) (domain or fragment, UniProt O14924 664-885, looked up)
chain: DLESATVSDGELTGADLKDCVSNNSLSSNASLPSVQSCRRLRERRVASWAVSFERLLQDPVGVRYFSDFLRKEFSEENILFWQACEYFNHVPAHDKKELSYRAREIFSKFLCSKATTPVNIDSQAQLADDVLRAPHPDMFKEQQLQIFNLMKFDSYTRFLKSPLYQECILAEVEGRALPDSQQVPSSPASKHSLGSDHSSVSTPKKLSGKSKSGRSLNEELG
notes: also called GST-RGS12
B1 was tested, and the Kd was 1270 nM.
